Measured values as given in IntAct's records for PubMed 25910212.

What was measured:
cap2_human CAP2 [1] = molecular target: cap2_human CAP2 (UniProt P40123)
cap2_human CAP2 [2] = molecular target: cap2_human CAP2 (UniProt P40123); remark: listed apart in the source
cof2_human CFL2 = cof2_human CFL2 (UniProt Q9Y281)
KRT40 = KRT40 (UniProt Q6A162)
tpp2_human TPP2 = tpp2_human TPP2 (UniProt P29144)
fsd2_human FSD2 = molecular target: T1, fsd2_human FSD2 (UniProt A1L4K1)
T1 sequence: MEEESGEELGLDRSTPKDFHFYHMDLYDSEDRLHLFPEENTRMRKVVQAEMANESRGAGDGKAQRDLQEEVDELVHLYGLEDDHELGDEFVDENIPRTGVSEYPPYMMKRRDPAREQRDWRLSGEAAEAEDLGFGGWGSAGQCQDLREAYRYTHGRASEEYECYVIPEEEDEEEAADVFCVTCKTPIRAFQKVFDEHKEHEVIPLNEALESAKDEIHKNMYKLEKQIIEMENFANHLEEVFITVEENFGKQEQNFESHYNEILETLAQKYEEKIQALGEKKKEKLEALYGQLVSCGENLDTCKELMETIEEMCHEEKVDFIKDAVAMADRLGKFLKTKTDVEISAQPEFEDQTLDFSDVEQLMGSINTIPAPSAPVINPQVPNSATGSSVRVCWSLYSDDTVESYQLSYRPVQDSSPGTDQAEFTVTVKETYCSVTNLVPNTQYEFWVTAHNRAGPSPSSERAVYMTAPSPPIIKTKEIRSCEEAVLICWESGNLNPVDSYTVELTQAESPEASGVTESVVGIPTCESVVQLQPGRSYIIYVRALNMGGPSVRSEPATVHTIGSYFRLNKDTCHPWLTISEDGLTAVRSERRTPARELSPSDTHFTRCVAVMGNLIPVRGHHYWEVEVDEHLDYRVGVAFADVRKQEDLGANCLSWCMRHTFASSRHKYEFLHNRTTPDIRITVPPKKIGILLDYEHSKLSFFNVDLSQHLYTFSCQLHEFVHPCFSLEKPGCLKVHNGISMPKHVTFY

hem1_human ALAS1 = hem1_human ALAS1 (UniProt P13196)
goga2_human GOLGA2 [3] = molecular target: goga2_human GOLGA2 (UniProt Q08379)
tfcp2_human TFCP2 = tfcp2_human TFCP2 (UniProt Q12800)
MTUS2, Q5JR59-3 [4] = molecular target: MTUS2, Q5JR59-3
cep70_human CEP70 = molecular target: T2, cep70_human CEP70 (UniProt Q8NHQ1)
T2 sequence: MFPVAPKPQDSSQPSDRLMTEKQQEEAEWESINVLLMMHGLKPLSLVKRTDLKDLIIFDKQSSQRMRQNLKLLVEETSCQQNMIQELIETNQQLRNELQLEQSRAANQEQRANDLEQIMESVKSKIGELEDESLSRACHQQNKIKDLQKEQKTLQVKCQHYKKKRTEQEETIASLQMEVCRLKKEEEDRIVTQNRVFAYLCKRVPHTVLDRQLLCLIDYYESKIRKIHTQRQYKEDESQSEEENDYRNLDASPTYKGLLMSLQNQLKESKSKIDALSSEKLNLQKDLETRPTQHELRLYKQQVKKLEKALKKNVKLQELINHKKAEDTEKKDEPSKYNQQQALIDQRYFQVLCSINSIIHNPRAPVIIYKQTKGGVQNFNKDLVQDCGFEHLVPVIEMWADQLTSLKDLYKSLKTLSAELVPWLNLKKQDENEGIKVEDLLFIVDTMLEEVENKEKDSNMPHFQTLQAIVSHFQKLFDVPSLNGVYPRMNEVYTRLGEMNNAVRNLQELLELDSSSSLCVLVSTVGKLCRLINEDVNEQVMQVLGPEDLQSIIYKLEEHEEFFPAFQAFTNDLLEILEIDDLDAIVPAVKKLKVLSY

tsg10_human TSGA10 = tsg10_human TSGA10 (UniProt Q9BZW7)
kash5_human KASH5 = molecular target: T3, kash5_human KASH5 (UniProt Q8N6L0)
T3 sequence: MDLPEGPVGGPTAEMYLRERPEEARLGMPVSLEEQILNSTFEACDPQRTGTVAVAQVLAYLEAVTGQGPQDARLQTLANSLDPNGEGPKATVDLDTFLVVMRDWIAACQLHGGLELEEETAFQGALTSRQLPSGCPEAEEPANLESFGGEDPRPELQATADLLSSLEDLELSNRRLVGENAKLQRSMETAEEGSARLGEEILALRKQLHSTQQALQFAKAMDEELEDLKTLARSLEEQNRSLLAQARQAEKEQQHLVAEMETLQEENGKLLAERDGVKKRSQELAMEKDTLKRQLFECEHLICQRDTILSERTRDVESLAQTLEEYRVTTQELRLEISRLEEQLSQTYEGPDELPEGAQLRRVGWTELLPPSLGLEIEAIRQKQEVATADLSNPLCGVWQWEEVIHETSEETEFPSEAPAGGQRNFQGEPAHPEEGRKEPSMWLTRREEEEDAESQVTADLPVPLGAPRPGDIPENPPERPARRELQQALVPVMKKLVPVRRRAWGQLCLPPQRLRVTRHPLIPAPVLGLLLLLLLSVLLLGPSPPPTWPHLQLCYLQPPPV

syce1_human SYCE1 [5] = molecular target: syce1_human SYCE1 (UniProt Q8N0S2)
kxdl1_human KXD1 = kxdl1_human KXD1 (UniProt Q9BQD3)
ifit3_human IFIT3 [6] = molecular target: ifit3_human IFIT3 (UniProt O14879)
CAGE1, Q8TC20-4 [7] = molecular target: CAGE1, Q8TC20-4
goga2_human GOLGA2 [8] = molecular target: goga2_human GOLGA2 (UniProt Q08379); remark: listed apart in the source
md1l1_human MAD1L1 = md1l1_human MAD1L1 (UniProt Q9Y6D9)
CAGE1, Q8TC20-4 [9] = molecular target: CAGE1, Q8TC20-4; remark: listed apart in the source
ifit3_human IFIT3 [10] = molecular target: ifit3_human IFIT3 (UniProt O14879); remark: listed apart in the source
tfpt_human TFPT = tfpt_human TFPT (UniProt P0C1Z6)
syce1_human SYCE1 [11] = molecular target: syce1_human SYCE1 (UniProt Q8N0S2); remark: listed apart in the source
MTUS2, Q5JR59-3 [12] = molecular target: MTUS2, Q5JR59-3; remark: listed apart in the source

Measured: effect of a mutation on the interaction

CAGE1, Q8TC20-4, sequence (Q8TC20 other isoform, or with tags, fused parts or gaps): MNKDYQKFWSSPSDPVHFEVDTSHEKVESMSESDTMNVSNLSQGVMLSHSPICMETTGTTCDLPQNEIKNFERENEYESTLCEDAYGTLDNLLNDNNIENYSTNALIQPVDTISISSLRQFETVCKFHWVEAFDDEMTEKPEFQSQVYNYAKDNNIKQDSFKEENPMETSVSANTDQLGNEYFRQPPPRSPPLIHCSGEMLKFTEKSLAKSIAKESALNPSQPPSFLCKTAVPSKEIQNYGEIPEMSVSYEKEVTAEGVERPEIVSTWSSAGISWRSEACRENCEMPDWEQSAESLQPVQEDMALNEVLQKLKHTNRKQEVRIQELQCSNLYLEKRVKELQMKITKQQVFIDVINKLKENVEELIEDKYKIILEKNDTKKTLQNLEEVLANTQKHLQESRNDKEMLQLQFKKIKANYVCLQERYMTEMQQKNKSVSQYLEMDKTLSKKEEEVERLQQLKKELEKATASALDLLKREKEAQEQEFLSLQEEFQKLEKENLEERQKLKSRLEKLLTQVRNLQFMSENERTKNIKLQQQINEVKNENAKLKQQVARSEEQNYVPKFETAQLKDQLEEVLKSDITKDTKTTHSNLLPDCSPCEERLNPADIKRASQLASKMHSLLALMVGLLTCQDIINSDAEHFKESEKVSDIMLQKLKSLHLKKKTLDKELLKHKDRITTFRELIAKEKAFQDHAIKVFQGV
Tropomyosin alpha-1 chain (Homo sapiens), P09493-10 V95A, sequence (P09493 other isoform, or with tags, fused parts or gaps V95A): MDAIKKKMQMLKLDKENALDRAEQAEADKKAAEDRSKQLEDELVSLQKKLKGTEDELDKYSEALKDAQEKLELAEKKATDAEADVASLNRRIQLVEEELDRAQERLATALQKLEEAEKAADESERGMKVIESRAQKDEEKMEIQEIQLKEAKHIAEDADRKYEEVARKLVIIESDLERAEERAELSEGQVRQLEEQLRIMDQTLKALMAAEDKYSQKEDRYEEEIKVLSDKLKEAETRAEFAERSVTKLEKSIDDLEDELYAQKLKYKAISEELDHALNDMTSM
Tropomyosin alpha-1 chain (Homo sapiens), P09493-10 D175N, sequence (P09493 other isoform, or with tags, fused parts or gaps D175N): as the sequence (P09493 other isoform, or with tags, fused parts or gaps V95A) above
ifit3_human IFIT3, sequence (O14879 whole entry): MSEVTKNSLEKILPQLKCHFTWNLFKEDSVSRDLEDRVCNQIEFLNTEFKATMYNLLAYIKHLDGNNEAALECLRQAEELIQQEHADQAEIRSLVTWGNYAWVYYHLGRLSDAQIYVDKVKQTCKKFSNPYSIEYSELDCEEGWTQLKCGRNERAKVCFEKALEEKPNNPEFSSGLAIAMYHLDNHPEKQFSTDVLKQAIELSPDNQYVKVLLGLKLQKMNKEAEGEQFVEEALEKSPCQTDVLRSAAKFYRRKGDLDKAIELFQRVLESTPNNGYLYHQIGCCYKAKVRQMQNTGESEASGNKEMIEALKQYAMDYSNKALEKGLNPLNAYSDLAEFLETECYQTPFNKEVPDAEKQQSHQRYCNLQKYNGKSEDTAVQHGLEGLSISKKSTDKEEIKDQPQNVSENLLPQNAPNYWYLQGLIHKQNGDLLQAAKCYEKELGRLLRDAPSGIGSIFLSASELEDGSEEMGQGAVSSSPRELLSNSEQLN
goga2_human GOLGA2, sequence (Q08379 whole entry): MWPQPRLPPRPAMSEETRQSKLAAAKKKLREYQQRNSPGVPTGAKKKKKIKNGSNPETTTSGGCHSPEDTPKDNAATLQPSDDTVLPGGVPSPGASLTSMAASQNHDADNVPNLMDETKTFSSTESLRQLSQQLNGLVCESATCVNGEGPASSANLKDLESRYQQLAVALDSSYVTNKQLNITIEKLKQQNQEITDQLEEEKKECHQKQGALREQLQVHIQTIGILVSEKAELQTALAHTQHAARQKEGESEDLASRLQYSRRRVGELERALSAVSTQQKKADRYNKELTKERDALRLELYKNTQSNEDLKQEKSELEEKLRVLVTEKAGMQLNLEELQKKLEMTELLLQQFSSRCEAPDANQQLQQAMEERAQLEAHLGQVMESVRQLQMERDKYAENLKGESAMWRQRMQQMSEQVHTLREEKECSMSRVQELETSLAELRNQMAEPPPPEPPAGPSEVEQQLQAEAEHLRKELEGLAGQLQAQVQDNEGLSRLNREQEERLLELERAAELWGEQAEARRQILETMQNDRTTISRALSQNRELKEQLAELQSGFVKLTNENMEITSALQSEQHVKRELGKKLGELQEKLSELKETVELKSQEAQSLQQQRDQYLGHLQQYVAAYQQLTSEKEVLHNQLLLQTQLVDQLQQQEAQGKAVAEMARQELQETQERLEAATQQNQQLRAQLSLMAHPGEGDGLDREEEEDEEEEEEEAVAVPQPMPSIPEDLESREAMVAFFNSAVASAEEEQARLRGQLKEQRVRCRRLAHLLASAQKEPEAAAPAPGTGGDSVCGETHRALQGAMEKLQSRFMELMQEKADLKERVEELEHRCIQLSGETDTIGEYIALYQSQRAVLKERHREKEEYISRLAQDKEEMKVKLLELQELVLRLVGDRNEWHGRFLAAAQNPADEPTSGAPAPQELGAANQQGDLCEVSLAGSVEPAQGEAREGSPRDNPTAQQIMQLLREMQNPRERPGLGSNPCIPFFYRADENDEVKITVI
syce1_human SYCE1, sequence (Q8N0S2 whole entry): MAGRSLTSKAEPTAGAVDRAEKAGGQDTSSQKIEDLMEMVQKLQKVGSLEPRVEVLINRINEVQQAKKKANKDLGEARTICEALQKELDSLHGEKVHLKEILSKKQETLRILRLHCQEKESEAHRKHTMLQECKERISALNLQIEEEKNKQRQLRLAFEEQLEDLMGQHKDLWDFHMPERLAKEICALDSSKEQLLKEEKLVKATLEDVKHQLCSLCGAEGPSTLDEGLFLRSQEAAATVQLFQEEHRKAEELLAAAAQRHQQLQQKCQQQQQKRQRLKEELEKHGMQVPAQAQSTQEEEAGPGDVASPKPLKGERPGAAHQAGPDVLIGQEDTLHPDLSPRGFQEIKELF
MTUS2, Q5JR59-3, sequence (Q5JR59 other isoform, or with tags, fused parts or gaps): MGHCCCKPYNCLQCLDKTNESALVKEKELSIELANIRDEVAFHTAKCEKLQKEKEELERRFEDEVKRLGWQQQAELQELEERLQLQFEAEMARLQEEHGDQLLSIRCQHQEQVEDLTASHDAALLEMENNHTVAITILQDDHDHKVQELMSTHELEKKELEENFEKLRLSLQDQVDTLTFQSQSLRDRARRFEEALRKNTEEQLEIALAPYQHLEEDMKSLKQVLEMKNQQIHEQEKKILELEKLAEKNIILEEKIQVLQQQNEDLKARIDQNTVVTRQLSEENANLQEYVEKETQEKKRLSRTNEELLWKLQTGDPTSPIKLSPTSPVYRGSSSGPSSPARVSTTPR
hem1_human ALAS1, sequence (P13196 whole entry): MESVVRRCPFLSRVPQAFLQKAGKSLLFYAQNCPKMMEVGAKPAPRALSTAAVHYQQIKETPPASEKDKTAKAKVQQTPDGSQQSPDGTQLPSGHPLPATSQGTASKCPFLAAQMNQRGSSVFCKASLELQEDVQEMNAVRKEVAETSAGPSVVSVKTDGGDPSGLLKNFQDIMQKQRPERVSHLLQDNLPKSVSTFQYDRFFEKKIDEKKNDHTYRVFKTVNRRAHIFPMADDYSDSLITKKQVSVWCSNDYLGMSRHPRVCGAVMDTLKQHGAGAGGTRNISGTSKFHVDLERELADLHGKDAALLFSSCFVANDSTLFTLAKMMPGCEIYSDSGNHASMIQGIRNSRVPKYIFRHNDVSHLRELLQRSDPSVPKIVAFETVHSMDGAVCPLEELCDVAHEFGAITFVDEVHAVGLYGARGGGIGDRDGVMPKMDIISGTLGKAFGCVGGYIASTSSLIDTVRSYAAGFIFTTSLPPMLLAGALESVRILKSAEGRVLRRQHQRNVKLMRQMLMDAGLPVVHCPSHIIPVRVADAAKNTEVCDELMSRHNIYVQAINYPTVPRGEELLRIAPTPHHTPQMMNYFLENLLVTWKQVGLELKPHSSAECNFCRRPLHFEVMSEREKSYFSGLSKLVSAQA
tfcp2_human TFCP2, sequence (Q12800 whole entry): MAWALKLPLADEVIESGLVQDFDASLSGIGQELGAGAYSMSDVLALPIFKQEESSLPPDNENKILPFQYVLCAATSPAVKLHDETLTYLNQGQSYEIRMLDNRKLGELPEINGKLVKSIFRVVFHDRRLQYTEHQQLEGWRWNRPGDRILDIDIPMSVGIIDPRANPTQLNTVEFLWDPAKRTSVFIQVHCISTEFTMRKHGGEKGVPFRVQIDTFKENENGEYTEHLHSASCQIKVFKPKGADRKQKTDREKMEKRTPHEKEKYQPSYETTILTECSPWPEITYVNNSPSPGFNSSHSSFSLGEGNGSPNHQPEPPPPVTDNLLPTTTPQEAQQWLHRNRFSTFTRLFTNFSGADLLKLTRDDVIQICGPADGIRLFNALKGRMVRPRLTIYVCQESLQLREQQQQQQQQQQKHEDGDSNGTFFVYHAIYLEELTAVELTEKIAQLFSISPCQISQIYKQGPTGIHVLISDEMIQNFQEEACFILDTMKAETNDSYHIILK
TNNT1, P13805-3, sequence (P13805 other isoform, or with tags, fused parts or gaps): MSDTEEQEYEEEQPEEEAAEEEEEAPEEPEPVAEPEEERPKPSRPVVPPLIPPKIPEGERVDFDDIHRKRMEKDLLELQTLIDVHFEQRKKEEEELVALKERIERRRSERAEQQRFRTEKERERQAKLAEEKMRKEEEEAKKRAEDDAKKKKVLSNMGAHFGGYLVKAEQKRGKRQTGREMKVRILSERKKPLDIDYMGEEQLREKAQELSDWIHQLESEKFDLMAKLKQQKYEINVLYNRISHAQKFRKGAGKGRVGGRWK
tfpt_human TFPT, sequence (P0C1Z6 whole entry): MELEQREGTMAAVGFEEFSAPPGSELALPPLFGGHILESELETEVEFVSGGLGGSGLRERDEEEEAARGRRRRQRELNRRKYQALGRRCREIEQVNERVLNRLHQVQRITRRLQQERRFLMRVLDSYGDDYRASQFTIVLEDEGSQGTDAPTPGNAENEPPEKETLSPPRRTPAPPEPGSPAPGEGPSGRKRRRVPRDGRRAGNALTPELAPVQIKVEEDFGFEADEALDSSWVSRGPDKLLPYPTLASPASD

Actin, cytoplasmic 1 (Homo sapiens) (from UniProt P60709) R183W
causing an interaction: cap2_human CAP2 [2]
with no effect: cap2_human CAP2 [1] | cof2_human CFL2

Cytochrome c (Homo sapiens), P99999 G42S
with no effect: KRT40

DNA polymerase beta (Homo sapiens) (from UniProt P06746) R137Q
with no effect: tpp2_human TPP2

Parafibromin (Homo sapiens) (from UniProt Q6P1J9) L64P
disrupting interaction strength: fsd2_human FSD2 | hem1_human ALAS1 | goga2_human GOLGA2 [3] | tfcp2_human TFCP2 | MTUS2, Q5JR59-3 [4] | cep70_human CEP70 | tsg10_human TSGA10 | kash5_human KASH5

Parafibromin (Homo sapiens) (from UniProt Q6P1J9) R91P
disrupting interaction strength: fsd2_human FSD2 | hem1_human ALAS1 | goga2_human GOLGA2 [3] | tfcp2_human TFCP2 | MTUS2, Q5JR59-3 [4] | cep70_human CEP70 | tsg10_human TSGA10 | kash5_human KASH5

Tropomyosin alpha-1 chain (Homo sapiens), P09493-10 D175N
with no effect: syce1_human SYCE1 [5] | kxdl1_human KXD1 | CAGE1, Q8TC20-4 [7] | goga2_human GOLGA2 [8] | md1l1_human MAD1L1 | ifit3_human IFIT3 [10] | tfpt_human TFPT | TNNT1, P13805-3
causing an interaction: ifit3_human IFIT3 [6] | CAGE1, Q8TC20-4 [9]

Tropomyosin alpha-1 chain (Homo sapiens), P09493-10 V95A
with no effect: kxdl1_human KXD1 | CAGE1, Q8TC20-4 [7] | md1l1_human MAD1L1 | syce1_human SYCE1 [11] | ifit3_human IFIT3 [10] | tfpt_human TFPT | TNNT1, P13805-3
disrupting interaction strength: syce1_human SYCE1 [5] | goga2_human GOLGA2 [8]

Zinc finger protein 624 (Homo sapiens), Q9P2J8 K135N
with no effect: MTUS2, Q5JR59-3 [12]
